Values joined by “and” are separate entries in the source; they are usually repeats but may differ in a detail not shown here. Identical values can stand only once.
How the values were obtained:
[1] = molecular target: T1, recombinant human EphA5 (rhEphA5) antigen (Homo sapiens, UniProt P54756); test: Biacore multi-cycle kinetic analysis of purified antibodies, 1:1 model; format: binding; settings: for binding to EphA5 relative to the chimeric antibody (VH0/VK0): purified antibodies, multi-cycle kinetics
T1 construct: purchased R and D systems 3036-A5
Procedure: In order to assess the binding of the six lead humanized variants to rhEphA5 antigen, multi-cycle kinetic analysis (FIG. 68) was performed on purified material. Kinetic experiments were performed at 25° C. on a Biacore T200 running Biacore T200 Control software V2.0.1 and Evaluation software V3.0 (GE Healthcare, Uppsala, Sweden).
HBS-P+ (GE Healthcare, Uppsala, Sweden), supplemented with 1% BSA w/v (Sigma, Dorset, UK) was used as running buffer as well as for ligand and analyte dilutions. Purified lead antibodies were diluted to 0.5 μg/mL in running buffer and at the start of each cycle, loaded onto Fc2, Fc3 and Fc4 of an anti-human IgG CM5 sensor chip (GE Healthcare, Little Chalfont, UK). Antibodies were captured at a flow rate of 10 μl/min to give an immobilization level (RL) of ~50 RU. The surface was then allowed to stabilize.
Multi-cycle kinetic data was obtained using recombinant EphA5 as the analytes injected at a flow rate of 30 μl/min to minimize any potential mass transfer effects. A five point, three-fold dilution range from 1.11 nM to 270 nM of EphA5 was prepared in running buffer. For each concentration, the association phases were monitored for 210 seconds and the dissociation phase was measured for 900 seconds. Regeneration of the sensor chip surface was conducted between cycles using two injections of 3 M MgCl2. Multiple repeats of a blank and of EphA5 were programmed into the kinetic run in order to check the stability of both the surface and analyte over the kinetic cycles.
The signal from the reference channel Fc1 (no IgG captured) was subtracted from that of Fc2, Fc3 and Fc4 to correct for bulk effect and differences in non-specific binding to a reference surface. The signal from each IgG blank run (IgG captured but no antigen) was subtracted to correct for differences in surface stability. The double referenced sensorgrams were fitted with the Langmuir (1:1) binding model where the closeness of fit of the data to the model is evaluated using the Chi square value which describes the deviation between the experimental and fitted (observed and expected) curves. The fitting algorithm seeks to minimize the Chi square value.
A summary of the kinetic constants determined from the 1:1 model fitted curves is shown in FIG. 19 with fitted curves shown in FIG. 20.

[2] = Thermal ramp stability (UNcle, Sypro Orange fluorescence and static light scattering); format: physicochemical
Source text: Thermal ramp stability experiments (Tm and Tagg) are well established methods for ranking proteins and formulations for stability. A protein's denaturation profile provides information about its thermal stability and represents a structural ‘fingerprint’ for assessing structural and formulation buffer modifications. A widely used measure of the thermal structural stability of a protein is the temperature at which it unfolds from the native state to a denatured state. For many proteins, this unfolding process occurs over a narrow temperature range and the mid-point of this transition is termed ‘melting temperature’ or ‘Tm’. To determine the melting temperature of a protein, UNcle measures the fluorescence of Sypro Orange (which binds to exposed hydrophobic regions of proteins) as the protein undergoes conformational changes.
Samples for each variant were formulated in PBS and Sypro Orange at a final concentration of 1 mg/mL. 9 μL of each sample mixture was loaded in duplicate into UNi microcuvettes. Samples were subjected to a thermal ramp from 25-95° C., with a ramp rate of 0.3° C./minute and excitation at 473 nm. Full emission spectra were collected from 250-720 nm, and the area under the curve between 510-680 nm was used to calculate the inflection points of the transition curves (Tonset and Tm). Monitoring of static light scattering (SLS) at 473 nm allowed the detection of protein aggregation, and Tagg (onset of aggregation) was calculated from the resulting SLS profiles. Thermal stability values determined lie in a broad range from 57.9 to 69.6° C. (Tm1), 55.1 to 65.2° C. (Tonset) and 65.6 to 70.2° C. (Tagg) with the humanized leads generally showing improved profiles when compared to the chimeric antibody. […] All humanized antibodies appear to have a higher Tm1, Tonset and Tagg compared to the chimeric antibody.

H226 cells (EphA5−) = test: Flow cytometry analysis of cell binding, EphA5-negative control cells; design: species or system human; settings: starting 10 μg/ml, three-fold serial dilution
Procedure: (§1) A H460 cell line stably expressing EphA5 (provided by Rutgers) was used, alongside H226 cells as a negative control, to test for antibody binding in a flow cytometry assay. The cell lines were first assessed for target expression using 10 μg/ml of the murine 11C12 provided by Rutgers) and MolgG1 non-binging control (Biolegend, California, US). Goat anti-mouse Alexa Fluor 647 (Thermo Fisher, Loughborough, UK) was used for antibody detection.
(§2) For cell binding assays, both cell lines were resuspended in FACS buffer (PBS+1% BSA+0.1% sodium azide) and seeded in 96 well U bottom plates at 1×105 (100 μl) cells per well. The chimeric and six purified humanized variants were tested in the assay alongside the 11C12 murine positive control, MolgG1 and HulgG1 non-binding controls. Samples were prepared at a starting concentration of 10 μg/ml in FACS buffer and underwent a four-fold seven point serial dilution for testing with H460 cells and a three-fold three point serial dilution for the H226 cells. […] Median fluorescence intensity (MFI) was measured using an Attune NxT Flow Cytometer (Thermo Fisher, Loughborough, UK) and 10,000 gated events were acquired per sample. For data analysis, live cell populations were gated based on the forward and side scatter dot plot allowing the Alexa Fluor 647 MFI values to be measured in the RL1 channel.

[3] = molecular target: T2, H460 cell line stably expressing EphA5 (Homo sapiens, UniProt P54756); test: Flow cytometry analysis of cell binding, EphA5-positive cells; settings: starting 10 μg/ml, four-fold serial dilution, 4° C. 30 minutes
T2 construct: A H460 cell line stably expressing EphA5 (provided by Rutgers) was used; endogenous in cells; host or cells: H460 human lung carcinoma cells (provided by Rutgers)
Procedure: as §1, §2

T1 sequence (P54756 25-573 limits assumed): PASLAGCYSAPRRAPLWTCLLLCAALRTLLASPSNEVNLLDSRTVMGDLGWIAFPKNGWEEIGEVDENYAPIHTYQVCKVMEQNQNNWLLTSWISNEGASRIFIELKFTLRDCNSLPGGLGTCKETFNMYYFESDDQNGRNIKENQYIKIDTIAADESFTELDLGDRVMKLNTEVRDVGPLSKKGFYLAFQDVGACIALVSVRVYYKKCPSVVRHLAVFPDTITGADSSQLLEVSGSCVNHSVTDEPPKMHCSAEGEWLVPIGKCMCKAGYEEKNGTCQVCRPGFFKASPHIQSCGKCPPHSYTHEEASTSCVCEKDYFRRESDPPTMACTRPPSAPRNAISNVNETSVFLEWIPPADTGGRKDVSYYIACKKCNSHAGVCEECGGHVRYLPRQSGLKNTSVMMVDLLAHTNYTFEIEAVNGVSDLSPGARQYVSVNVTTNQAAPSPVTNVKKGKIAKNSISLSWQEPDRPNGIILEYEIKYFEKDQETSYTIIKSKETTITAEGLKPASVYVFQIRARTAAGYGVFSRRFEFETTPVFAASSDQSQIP
T2 sequence (P54756 25-1037): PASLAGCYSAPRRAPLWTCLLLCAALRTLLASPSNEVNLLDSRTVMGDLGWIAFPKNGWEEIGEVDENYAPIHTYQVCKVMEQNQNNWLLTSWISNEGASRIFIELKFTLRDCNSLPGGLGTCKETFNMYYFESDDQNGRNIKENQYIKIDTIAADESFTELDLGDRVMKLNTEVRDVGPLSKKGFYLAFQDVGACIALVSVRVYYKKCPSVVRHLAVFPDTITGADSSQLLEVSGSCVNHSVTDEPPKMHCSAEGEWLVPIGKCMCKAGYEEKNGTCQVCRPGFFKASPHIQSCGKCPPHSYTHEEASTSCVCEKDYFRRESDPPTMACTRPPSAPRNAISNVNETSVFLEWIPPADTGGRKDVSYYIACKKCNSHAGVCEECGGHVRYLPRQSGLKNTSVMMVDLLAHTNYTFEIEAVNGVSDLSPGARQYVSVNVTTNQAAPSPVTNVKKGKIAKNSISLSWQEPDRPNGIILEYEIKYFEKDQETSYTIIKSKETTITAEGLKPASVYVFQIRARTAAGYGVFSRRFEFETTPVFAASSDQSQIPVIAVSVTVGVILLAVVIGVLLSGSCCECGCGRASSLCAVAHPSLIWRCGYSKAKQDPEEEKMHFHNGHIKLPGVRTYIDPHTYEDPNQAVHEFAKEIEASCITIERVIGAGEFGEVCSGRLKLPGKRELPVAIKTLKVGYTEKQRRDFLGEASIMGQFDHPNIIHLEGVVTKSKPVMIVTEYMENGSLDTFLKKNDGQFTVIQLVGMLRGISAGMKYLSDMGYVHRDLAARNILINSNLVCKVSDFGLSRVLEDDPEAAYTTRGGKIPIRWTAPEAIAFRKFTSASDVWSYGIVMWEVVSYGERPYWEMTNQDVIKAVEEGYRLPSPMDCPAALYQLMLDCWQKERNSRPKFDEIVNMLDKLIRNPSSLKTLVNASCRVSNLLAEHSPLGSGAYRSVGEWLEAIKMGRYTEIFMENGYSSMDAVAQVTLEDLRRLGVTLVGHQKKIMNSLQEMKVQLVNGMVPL

B1: VH0/VK0: chimeric anti-EphA5 antibody, murine 11C12 variable regions (VH SEQ ID NO:1, VL SEQ ID NO:8), human IgG1/kappa constant regions (antibody, V domains shown)
VH: EVTLKESGGGLVQPGGSRKLSCAASGFTFSTFGIHWVRQAPEKGLEWVAYISGASTTIYYADTVKGRFTISRDNPKNTLFLQMTSLRSEDTAMYYCARYGTSFPYGLDYWGQGTSVTVSS
VL: DIVMTQSPGSLAVSLGQRATISCKASQSVDYDGDSYMNWYQQKPGQPPKLLIYGASNLESGIPARFSGSGSGTDFTLNIHPVEEEDAASYYCQQSNEDPFTFGSGTKLEIK
modifications: human IgG1/kappa constant regions without entry
[1]; Biacore T200, 25° C., IgG captured on anti-human IgG chip
  kd: 0.0015 s⁻¹
[1]; fitted 1:1 model
  RMAX: 47.8
[2]; average of duplicates
  Average Tm2 (° C.): 65.83 °C
  Average Tonset (° C.): 55.1 °C
[2]; average of duplicates, 1 mg/mL in PBS
  Average Tm1 (° C.): 57.9 °C
[2]; average of duplicates, SLS at 473 nm
  Average Tagg 473 (° C.): 65.6 °C
[2]; single replicate
  Tonset (° C.): 54.92 °C and 55.23 °C
[2]; single replicate, 1 mg/mL in PBS
  Tm2 (° C.): 65.83 °C
[2]; single replicate, 1 mg/mL in PBS, ramp 25-95° C.
  Tm1 (° C.): 57.83 °C and 57.87 °C
[2]; single replicate, SLS at 473 nm
  Tagg 473 (° C.): 65.72 °C and 65.60 °C
[2]; thermal ramp 25-95° C.
  number of thermal transitions detected: two transitions

B2: 11C12: anti-human EphA5 monoclonal murine antibody, parental antibody and positive control (antibody, V domains shown)
VH: EVTLKESGGGLVQPGGSRKLSCAASGFTFSTFGIHWVRQAPEKGLEWVAYISGASTTIYYADTVKGRFTISRDNPKNTLFLQMTSLRSEDTAMYYCARYGTSFPYGLDYWGQGTSVTVSS
VL: DIVMTQSPGSLAVSLGQRATISCKASQSVDYDGDSYMNWYQQKPGQPPKLLIYGASNLESGIPARFSGSGSGTDFTLNIHPVEEEDAASYYCQQSNEDPFTFGSGTKLEIK
H226 cells (EphA5−)
  binding to H226 (EphA5−) cells: no binding
[3]
  binding to H460 (EphA5+) cells, MFI dose response: bound to the positive cell line in a concentration dependent manner

B3: VH4/VK4: humanized anti-EphA5 IgG1/kappa antibody; VH SEQ ID NO:5, VL SEQ ID NO:12 (antibody, V domains shown)
VH: EVQLVESGGGLVQPGGSLKLSCAASGFTFSTFGIHWVRQAPGKGLEWVAYISGASTTIYYADTVKGRFTISRDNSKNTLYLQMNSLRAEDTAVYYCARYGTSFPYGLDYWGQGTLVTVSS
VL: DIVMTQSPDSLAVSLGERATINCKSSQSVDYDGDSYMNWYQQKPGKAPKLLIYGASNLESGIPDRFSGSGSGTDFTLTISRLEPEDAASYYCQQSNEDPFTFGQGTKLEIK
[1]
  binding to EphA5 relative to the chimeric antibody (VH0/VK0): within two-fold of the chimeric antibody

B4: VH3/VK4: humanized anti-EphA5 IgG1/kappa antibody; VH SEQ ID NO:4, VL SEQ ID NO:12 (antibody, V domains shown)
VH: EVQLVESGGGLVQPGGSLKLSCAASGFTFSTFGIHWVRQAPGKGLEWVAYISGASTTIYYADTVKGRFTISRDNSKNTLYLQMNSLRSEDTAMYYCARYGTSFPYGLDYWGQGTLVTVSS
VL: DIVMTQSPDSLAVSLGERATINCKSSQSVDYDGDSYMNWYQQKPGKAPKLLIYGASNLESGIPDRFSGSGSGTDFTLTISRLEPEDAASYYCQQSNEDPFTFGQGTKLEIK
[1]
  binding to EphA5 relative to the chimeric antibody (VH0/VK0): within two-fold of the chimeric antibody

B5: VH5/VK4: humanized anti-EphA5 IgG1/kappa antibody; VH SEQ ID NO:6, VL SEQ ID NO:12 (antibody, V domains shown)
VH: EVQLVESGGGLVQPGGSLKLSCAASGFTFSTFGIHWVRQAPGKGLEWVAYISGASTTIYYADSVKGRFTISRDNSKNTLYLQMNSLRAEDTAVYYCARYGTSFPYGLDYWGQGTLVTVSS
VL: DIVMTQSPDSLAVSLGERATINCKSSQSVDYDGDSYMNWYQQKPGKAPKLLIYGASNLESGIPDRFSGSGSGTDFTLTISRLEPEDAASYYCQQSNEDPFTFGQGTKLEIK
[1]
  binding to EphA5 relative to the chimeric antibody (VH0/VK0): within two-fold of the chimeric antibody
[2]; among the chimeric and six lead humanized variants
  ranking by Tagg (SLS profiles): highest Tagg values

B6: VH5/VK2: humanized anti-EphA5 IgG1/kappa antibody; VH SEQ ID NO:6, VL SEQ ID NO:10 (antibody, V domains shown)
VH: EVQLVESGGGLVQPGGSLKLSCAASGFTFSTFGIHWVRQAPGKGLEWVAYISGASTTIYYADSVKGRFTISRDNSKNTLYLQMNSLRAEDTAVYYCARYGTSFPYGLDYWGQGTLVTVSS
VL: DIVMTQSPDSLAVSLGERATINCKASQSVDYDGDSYMNWYQQKPGKAPKLLIYGASNLESGIPDRFSGSGSGTDFTLTISRLEPEDAASYYCQQSNEDPFTFGQGTKLEIK
[1]
  binding to EphA5 relative to the chimeric antibody (VH0/VK0): within two-fold of the chimeric antibody
